Like-named read-outs stand apart in the source and are kept apart here.
Legend:
[1] = molecular target: the molecule itself
[2] = molecular target: the molecule itself; assay: native gel or EMSA

B1: ELF4 (expressed from a plasmid; tag not stated for the experiment) (natural protein)
chain: not shown
With B1 as the protein, how does the “stoichiometry N” value [1] read?
Its value is 2.

B2: ELF4 (endogenous, mouse cells) (natural protein)
chain: not shown
For B2, which “stoichiometry N” value [2] is on record?
The value was 2.

B3: ELF4 (endogenous, human cells) (natural protein)
chain: not shown
B3 was tested. Which “stoichiometry N” value [2] did it give?
Its value is 2.

— publication PMC3939855 (Nature immunology, 2013)
